Reference: patent EP2966448B1, “METHOD FOR THE PREDICTION OR PROGNOSIS OF THE RESPONSE OF A HUMAN SUBJECT SUFFERING FROM CANCER TO TREATMENT WITH AN ANTAGONIST OF THE NK1 RECEPTOR” (priority 2013, dated 2014)

Target: NK1 receptor (human) (UniProt P25103)
Assay: cell-based or functional assay

Chain of NK1 receptor (human) (P25103 87-407): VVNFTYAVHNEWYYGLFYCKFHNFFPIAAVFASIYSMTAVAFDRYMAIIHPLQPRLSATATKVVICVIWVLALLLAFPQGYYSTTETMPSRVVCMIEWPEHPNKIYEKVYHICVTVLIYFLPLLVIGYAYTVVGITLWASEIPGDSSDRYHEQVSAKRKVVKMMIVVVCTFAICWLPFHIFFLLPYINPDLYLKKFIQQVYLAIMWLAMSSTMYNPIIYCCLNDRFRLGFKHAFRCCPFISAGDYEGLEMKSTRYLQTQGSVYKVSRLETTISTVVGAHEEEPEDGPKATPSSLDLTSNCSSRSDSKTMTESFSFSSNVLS

## anti-NK1 antibody (S8305, Sigma-Aldrich)
  Percentage of inhibition of cell cultures; Breast carcinoma (ductal adenocarcinoma); cases with amplification of the gene that encodes for the NK1 receptor: 96%
  Percentage of inhibition of cell cultures; Breast carcinoma (ductal adenocarcinoma); cases without amplification of the gene that encodes for the NK1 receptor: 26%
  Percentage of inhibition of cell cultures; Breast carcinoma (ductal adenocarcinoma); high expression of the truncated form of NK1 receptor (Group B): 94%
  Percentage of inhibition of cell cultures; Breast carcinoma (ductal adenocarcinoma); low expression of the truncated form of NK1 receptor (Group A): 24%
  Percentage of inhibition of cell cultures; Burkitt Lymphoma; cases with amplification of the gene that encodes for the NK1 receptor: 96%
  Percentage of inhibition of cell cultures; Burkitt Lymphoma; cases without amplification of the gene that encodes for the NK1 receptor: 25%
  Percentage of inhibition of cell cultures; Burkitt Lymphoma; high expression of the truncated form of NK1 receptor (Group B): 96%
  Percentage of inhibition of cell cultures; Burkitt Lymphoma; low expression of the truncated form of NK1 receptor (Group A): 26%
  Percentage of inhibition of cell cultures; Carcinoma of the uterine cervix (Squamous cell carcinoma); cases with amplification of the gene that encodes for the NK1 receptor: 94%
  Percentage of inhibition of cell cultures; Carcinoma of the uterine cervix (Squamous cell carcinoma); cases without amplification of the gene that encodes for the NK1 receptor: 27%
  Percentage of inhibition of cell cultures; Carcinoma of the uterine cervix (Squamous cell carcinoma); high expression of the truncated form of NK1 receptor (Group B): 95%
  Percentage of inhibition of cell cultures; Carcinoma of the uterine cervix (Squamous cell carcinoma); low expression of the truncated form of NK1 receptor (Group A): 24%
  Percentage of inhibition of cell cultures; Colon carcinoma (Adenocarcinoma); cases with amplification of the gene that encodes for the NK1 receptor: 96%
  Percentage of inhibition of cell cultures; Colon carcinoma (Adenocarcinoma); cases without amplification of the gene that encodes for the NK1 receptor: 24%
  Percentage of inhibition of cell cultures; Colon carcinoma (Adenocarcinoma); high expression of the truncated form of NK1 receptor (Group B): 94%
  Percentage of inhibition of cell cultures; Colon carcinoma (Adenocarcinoma); low expression of the truncated form of NK1 receptor (Group A): 24%
  Percentage of inhibition of cell cultures; Endometrium carcinoma; cases with amplification of the gene that encodes for the NK1 receptor: 96%
  Percentage of inhibition of cell cultures; Endometrium carcinoma; cases without amplification of the gene that encodes for the NK1 receptor: 28%
  Percentage of inhibition of cell cultures; Endometrium carcinoma; high expression of the truncated form of NK1 receptor (Group B): 94%
  Percentage of inhibition of cell cultures; Endometrium carcinoma; low expression of the truncated form of NK1 receptor (Group A): 26%
  Percentage of inhibition of cell cultures; Gastric carcinoma (Adenocarcinoma); cases with amplification of the gene that encodes for the NK1 receptor: 95%
  Percentage of inhibition of cell cultures; Gastric carcinoma (Adenocarcinoma); cases without amplification of the gene that encodes for the NK1 receptor: 25%
  Percentage of inhibition of cell cultures; Gastric carcinoma (Adenocarcinoma); high expression of the truncated form of NK1 receptor (Group B): 96%
  Percentage of inhibition of cell cultures; Gastric carcinoma (Adenocarcinoma); low expression of the truncated form of NK1 receptor (Group A): 22%
  Percentage of inhibition of cell cultures; Glioma (astrocytoma); cases with amplification of the gene that encodes for the NK1 receptor: 95%
  Percentage of inhibition of cell cultures; Glioma (astrocytoma); cases without amplification of the gene that encodes for the NK1 receptor: 25%
  Percentage of inhibition of cell cultures; Glioma (astrocytoma); high expression of the truncated form of NK1 receptor (Group B): 96%
  Percentage of inhibition of cell cultures; Glioma (astrocytoma); low expression of the truncated form of NK1 receptor (Group A): 24%
  Percentage of inhibition of cell cultures; Lung carcinoma (non small cell lung carcinoma); cases with amplification of the gene that encodes for the NK1 receptor: 97%
  Percentage of inhibition of cell cultures; Lung carcinoma (non small cell lung carcinoma); cases without amplification of the gene that encodes for the NK1 receptor: 25%
  Percentage of inhibition of cell cultures; Lung carcinoma (non small cell lung carcinoma); high expression of the truncated form of NK1 receptor (Group B): 95%
  Percentage of inhibition of cell cultures; Lung carcinoma (non small cell lung carcinoma); low expression of the truncated form of NK1 receptor (Group A): 26%
  Percentage of inhibition of cell cultures; Lung carcinoma (small cell lung carcinoma); cases with amplification of the gene that encodes for the NK1 receptor: 95%
  Percentage of inhibition of cell cultures; Lung carcinoma (small cell lung carcinoma); cases without amplification of the gene that encodes for the NK1 receptor: 26%
  Percentage of inhibition of cell cultures; Lung carcinoma (small cell lung carcinoma); high expression of the truncated form of NK1 receptor (Group B): 96%
  Percentage of inhibition of cell cultures; Lung carcinoma (small cell lung carcinoma); low expression of the truncated form of NK1 receptor (Group A): 25%
  Percentage of inhibition of cell cultures; Melanoma (Nodular Melanoma); cases with amplification of the gene that encodes for the NK1 receptor: 97%
  Percentage of inhibition of cell cultures; Melanoma (Nodular Melanoma); cases without amplification of the gene that encodes for the NK1 receptor: 26%
  Percentage of inhibition of cell cultures; Melanoma (Nodular Melanoma); high expression of the truncated form of NK1 receptor (Group B): 96%
  Percentage of inhibition of cell cultures; Melanoma (Nodular Melanoma); low expression of the truncated form of NK1 receptor (Group A): 26%
  Percentage of inhibition of cell cultures; Non Hodgkin Lymphoma B (diffuse B cell lymphoma); cases with amplification of the gene that encodes for the NK1 receptor: 94%
  Percentage of inhibition of cell cultures; Non Hodgkin Lymphoma B (diffuse B cell lymphoma); cases without amplification of the gene that encodes for the NK1 receptor: 26%
  Percentage of inhibition of cell cultures; Non Hodgkin Lymphoma B (diffuse B cell lymphoma); high expression of the truncated form of NK1 receptor (Group B): 95%
  Percentage of inhibition of cell cultures; Non Hodgkin Lymphoma B (diffuse B cell lymphoma); low expression of the truncated form of NK1 receptor (Group A): 24%
  Percentage of inhibition of cell cultures; Non Hodgkin Lymphoma T (diffuse T cell lymphoma); cases with amplification of the gene that encodes for the NK1 receptor: 95%
  Percentage of inhibition of cell cultures; Non Hodgkin Lymphoma T (diffuse T cell lymphoma); cases without amplification of the gene that encodes for the NK1 receptor: 24%
  Percentage of inhibition of cell cultures; Non Hodgkin Lymphoma T (diffuse T cell lymphoma); high expression of the truncated form of NK1 receptor (Group B): 95%
  Percentage of inhibition of cell cultures; Non Hodgkin Lymphoma T (diffuse T cell lymphoma); low expression of the truncated form of NK1 receptor (Group A): 25%
  Percentage of inhibition of cell cultures; Ovarian carcinoma (Adenocarcinoma); cases with amplification of the gene that encodes for the NK1 receptor: 95%
  Percentage of inhibition of cell cultures; Ovarian carcinoma (Adenocarcinoma); cases without amplification of the gene that encodes for the NK1 receptor: 24%
  Percentage of inhibition of cell cultures; Ovarian carcinoma (Adenocarcinoma); high expression of the truncated form of NK1 receptor (Group B): 95%
  Percentage of inhibition of cell cultures; Ovarian carcinoma (Adenocarcinoma); low expression of the truncated form of NK1 receptor (Group A): 25%
  Percentage of inhibition of cell cultures; Pancreatic carcinoma (Adenocarcinoma); cases with amplification of the gene that encodes for the NK1 receptor: 96%
  Percentage of inhibition of cell cultures; Pancreatic carcinoma (Adenocarcinoma); cases without amplification of the gene that encodes for the NK1 receptor: 25%
  Percentage of inhibition of cell cultures; Pancreatic carcinoma (Adenocarcinoma); high expression of the truncated form of NK1 receptor (Group B): 95%
  Percentage of inhibition of cell cultures; Pancreatic carcinoma (Adenocarcinoma); low expression of the truncated form of NK1 receptor (Group A): 23%
  Percentage of inhibition of cell cultures; Prostate carcinoma; cases with amplification of the gene that encodes for the NK1 receptor: 95%
  Percentage of inhibition of cell cultures; Prostate carcinoma; cases without amplification of the gene that encodes for the NK1 receptor: 25%
  Percentage of inhibition of cell cultures; Prostate carcinoma; high expression of the truncated form of NK1 receptor (Group B): 95%
  Percentage of inhibition of cell cultures; Prostate carcinoma; low expression of the truncated form of NK1 receptor (Group A): 27%
  Percentage of inhibition of cell cultures; Renal cell carcinoma (clear cell renal cell carcinoma); cases with amplification of the gene that encodes for the NK1 receptor: 97%
  Percentage of inhibition of cell cultures; Renal cell carcinoma (clear cell renal cell carcinoma); cases without amplification of the gene that encodes for the NK1 receptor: 27%
  Percentage of inhibition of cell cultures; Renal cell carcinoma (clear cell renal cell carcinoma); high expression of the truncated form of NK1 receptor (Group B): 93%
  Percentage of inhibition of cell cultures; Renal cell carcinoma (clear cell renal cell carcinoma); low expression of the truncated form of NK1 receptor (Group A): 24%
  Percentage of inhibition of cell cultures; Thyroid carcinoma (follicular carcinoma); cases with amplification of the gene that encodes for the NK1 receptor: 95%
  Percentage of inhibition of cell cultures; Thyroid carcinoma (follicular carcinoma); cases without amplification of the gene that encodes for the NK1 receptor: 26%
  Percentage of inhibition of cell cultures; Thyroid carcinoma (follicular carcinoma); high expression of the truncated form of NK1 receptor (Group B): 94%
  Percentage of inhibition of cell cultures; Thyroid carcinoma (follicular carcinoma); low expression of the truncated form of NK1 receptor (Group A): 24%
  Percentage of inhibition of cell cultures; Thyroid carcinoma (papillary carcinoma); cases with amplification of the gene that encodes for the NK1 receptor: 96%
  Percentage of inhibition of cell cultures; Thyroid carcinoma (papillary carcinoma); cases without amplification of the gene that encodes for the NK1 receptor: 27%
  Percentage of inhibition of cell cultures; Thyroid carcinoma (papillary carcinoma); high expression of the truncated form of NK1 receptor (Group B): 95%
  Percentage of inhibition of cell cultures; Thyroid carcinoma (papillary carcinoma); low expression of the truncated form of NK1 receptor (Group A): 25%
  Percentage of inhibition of cell cultures; Undifferentiated Pleomorphic Sarcoma (malignant fibrous histiocytoma grade 3); cases with amplification of the gene that encodes for the NK1 receptor: 96%
  Percentage of inhibition of cell cultures; Undifferentiated Pleomorphic Sarcoma (malignant fibrous histiocytoma grade 3); cases without amplification of the gene that encodes for the NK1 receptor: 25%
  Percentage of inhibition of cell cultures; Undifferentiated Pleomorphic Sarcoma (malignant fibrous histiocytoma grade 3); high expression of the truncated form of NK1 receptor (Group B): 95%
  Percentage of inhibition of cell cultures; Undifferentiated Pleomorphic Sarcoma (malignant fibrous histiocytoma grade 3); low expression of the truncated form of NK1 receptor (Group A): 25%
  Percentage of inhibition of cell cultures; Urinary bladder carcinoma (transitional cell carcinoma); cases with amplification of the gene that encodes for the NK1 receptor: 94%
  Percentage of inhibition of cell cultures; Urinary bladder carcinoma (transitional cell carcinoma); cases without amplification of the gene that encodes for the NK1 receptor: 24%
  Percentage of inhibition of cell cultures; Urinary bladder carcinoma (transitional cell carcinoma); high expression of the truncated form of NK1 receptor (Group B): 96%
  Percentage of inhibition of cell cultures; Urinary bladder carcinoma (transitional cell carcinoma); low expression of the truncated form of NK1 receptor (Group A): 26%
